In series [1] the test system is Flag-tagged rtPDE3B containing its full ORF.
Series [2] relates to Flag-tagged rtPDE3B-137 (full ORF) S421A.
The subject of series [3] is Flag-tagged rtPDE3B-137 (full ORF) S421D.

In the case of PK-A (cAMP-dependent protein kinase), the “stimulation of cGMP hydrolytic activity by PK-A (0.03 µM cGMP, with or without PK-A and ATP)” value in series [1], in series [2] and in series [3] was “caused a much greater stimulation of activity in S421D than in S421A or the wild-type rtPDE3B” in each case.

The record behind these values is patent publication US20030158133.
